Consider four molecules from patent publication US20250270332A1.

In this experiment the target is FZD1/2/4/5/7/8. The experiment can be described thus: cell-based or functional assay.

B1: Fab-Dia (bispecific antibody)
heavy: EVQLVESGGGLVQPGGSLRLSCAASGFNIHSSSIHWVRQAPGKGLEWVAATYSSFGSITYADSVKGRFTISADTSKNTAYLQMNSLRAEDTAVYYCARYHHPFGYALDYWGQGTLVTVSSASTKGPSVFPLAPSSKSTSGGTAALGCLVKDYFPEPVTVSWNSGALTSGVHTFPAVLQSSGLYSLSSVVTVPSSSLGTQTYICNVNHKPSNTKVDKKVEPKSCDKTHTGGSGGEVQLVESGGGLVQPGGSLRLSCAASGFTISYSSIHWVRQAPGKGLEWVASISPYYGYTYYADSVKGRFTISADTSKNTAYLQMNSLRAEDTAVYYCARSSYFPWFSAMDYWGQGTLVTVSSGGGGSDIQMTQSPSSLSASVGDRVTITCRASQSVSSAVAWYQQKPGKAPKLLIYSASSLYSGVPSRFSGSRSGTDFTLTISSLQPEDFATYYCQQYYWPITFGQGTKVEIK
light: DIQMTQSPSSLSASVGDRVTITCRASQSVSSAVAWYQQKPGKAPKLLIYSASSLYSGVPSRFSGSRSGTDFTLTISSLQPEDFATYYCQQGVYLFTFGQGTKVEIKRTVAAPSVFIFPPSDEQLKSGTASVVCLLNNFYPREAKVQWKVDNALQSGNSQESVTEQDSKDSTYSLSSTLTLSKADYEKHKVYACEVTHQGLSSPVTKSFNRGECGGGGSEVQLVESGGGLVQPGGSLRLSCAASGFTISSYYIHWVRQAPGKGLEWVASIYSSYGYTSYADSVKGRFTISADTSKNTAYLQMNSLRAEDTAVYYCARTVRGSKKPYFSGWAMDYWGQGTLVTVSSGGGGSDIQMTQSPSSLSASVGDRVTITCRASQSVSSAVAWYQQKPGKAPKLLIYSASSLYSGVPSRFSGSRSGTDFTLTISSLQPEDFATYYCQQYYFLITFGQGTKVEIK
Molecule B1 had an EC50 (nM), TOPFLASH assay of 0.4 nM and a Maximal Signal (% Wnt3a maxima) (% Wnt3a maxima) of 42.

B2: CM0011 (Dia-Fc-Dia) (bispecific antibody)
chain 1: MNLLLILTFVAAAVAEFEVQLVESGGGLVQPGGSLRLSCAASGFNIGSSSIHWVRQAPGKGLEWVASIYSAFASTSYADSVKGRFTISADTSKNTAYLQMNSLRAEDTAVYYCARYHFPFGFALDYWGQGTLVTVSSGGGGSDIQMTQSPSSLSASVGDRVTITCRASQSVSSAVAWYQQKPGKAPKLLIYSASSLYSGVPSRFSGSRSGTDFTLTISSLQPEDFATYYCQQGVYLFTFGQGTKVEIKLEDKTHTKVEPKSSDKTHNCPPCPAPELLGGPSVFLFPPKPKDTLMISRTPEVTCVVVDVSHEDPEVKFNWYVDGVEVHNAKTKPREEQYNSTYRVVSVLTVLHQDWLNGKEYKCKVSNKALPAPIEKTISKAKGQPREPQVYTLPPIRELMTSNQVSLSCAVKGFYPSDIAVEWESNGQPENNYKTTPPVLDSDGSFFLVSKLTVDKSRWQQGNVFSCSVMHEALHNHYTQKSLSLSPGKSGSETPGTSESATPESGGGEVQLVESGGGLVQPGGSLRLSCAASGFNISSYYIHWVRQAPGKGLEWVASIYSSYGYTSYADSVKGRFTISADTSKNTAYLQMNSLRAEDTAVYYCARTVRGSKKPYFSGWAMDYWGQGTLVTVSSGGGGSDIQMTQSPSSLSASVGDRVTITCRASQSVSSAVAWYQQKPGKAPKLLIYSASSLYSGVPSRFSGSRSGTDFTLTISSLQPEDFATYYCQQYSWGPFTFGQGTKVEIK
chain 2: MNLLLILTFVAAAVAEFEVQLVESGGGLVQPGGSLRLSCAASGFNIGSSSIHWVRQAPGKGLEWVASIYSAFASTSYADSVKGRFTISADTSKNTAYLQMNSLRAEDTAVYYCARYHFPFGFALDYWGQGTLVTVSSGGGGSDIQMTQSPSSLSASVGDRVTITCRASQSVSSAVAWYQQKPGKAPKLLIYSASSLYSGVPSRFSGSRSGTDFTLTISSLQPEDFATYYCQQGVYLFTFGQGTKVEIKLEDKTHTKVEPKTSDKTHTCPPCPAPELLGGPSVFLFPPKPKDTLMISRTPEVTCVVVDVSHEDPEVKFNWYVDGVEVHNAKTKPREEQYNSTYRVVSVLTVLHQDWLNGKEYKCKVSNKALPAPIEKTISKAKGQPREPMVFDLPPSREEMTKNQVSLWCMVKGFYPSDIAVEWESNGQPENNYKTTPPVLDSDGSFFLYSKLTVDKSRWQQGNVFSCSVMHEALHNHYTQKSLSLSPGKSGSETPGTSESATPESGGGEVQLVESGGGLVQPGGSLRLSCAASGFNISYSSIHWVRQAPGKGLEWVAYISSYYGYTYYADSVKGRFTISADTSKNTAYLQMNSLRAEDTAVYYCARAHYFPWAGAMDYWGQGTLVTVSSGGGGSDIQMTQSPSSLSASVGDRVTITCRASQSVSSAVAWYQQKPGKAPKLLIYSASSLYSGVPSRFSGSRSGTDFTLTISSLQPEDFATYYCQQYYWPITFGQGTKVEIK
The molecule B2 displayed a % Wnt Maxima Avg of 63%; an EC50 (nM), TOPFLASH assay of 0.3 nM; a Maximal Signal (% Wnt3a maxima) (% Wnt3a maxima) of 63; a Topflash EC50 (nM) Avg of 0.3 nM.

B3: CH3 (Dia-CH3-Dia) (bispecific antibody)
chain: MNLLLILTFVAAAVAEFEVQLVESGGGLVQPGGSLRLSCAASGFNIGSSSIHWVRQAPGKGLEWVASIYSAFASTSYADSVKGRFTISADTSKNTAYLQMNSLRAEDTAVYYCARYHFPFGFALDYWGQGTLVTVSSGGGGSDIQMTQSPSSLSASVGDRVTITCRASQSVSSAVAWYQQKPGKAPKLLIYSASSLYSGVPSRFSGSRSGTDFTLTISSLQPEDFATYYCQQGVYLFTFGQGTKVEIKDKTHTKVEPKTSDKTHTCPPCPGQPREPQVYTLPPSREEMTKNQVSLTCLVKGFYPSDIAVEWESNGQPENNYKTTPPVLDSDGSFFLYSKLTVDKSRWQQGNVFSCSVMHEALHNHYTQKSLSLSPGKGTTAASGSSGGSSSGAGRTEVQLVESGGGLVQPGGSLRLSCAASGFNISYSSIHWVRQAPGKGLEWVAYISSYYGYTYYADSVKGRFTISADTSKNTAYLQMNSLRAEDTAVYYCARAHYFPWAGAMDYWGQGTLVTVSSGGGGSDIQMTQSPSSLSASVGDRVTITCRASQSVSSAVAWYQQKPGKAPKLLIYSASSLYSGVPSRFSGSRSGTDFTLTISSLQPEDFATYYCQQYSWGPFTFGQGTKVEIK
B3 returned a Maximal Signal (% Wnt3a maxima) (% Wnt3a maxima) of 22.

B4: CT0003 (bispecific antibody)
chain 1: MNLLLILTFVAAAVAEFEVQLVESGGGLVQPGGSLRLSCAASGFNISSYYIHWVRQAPGKGLEWVASIYSSYGYTSYADSVKGRFTISADTSKNTAYLQMNSLRAEDTAVYYCARTVRGSKKPYFSGWAMDYWGQGTLVTVSSGGGGSDIQMTQSPSSLSASVGDRVTITCRASQSVSSAVAWYQQKPGKAPKLLIYSASSLYSGVPSRFSGSRSGTDFTLTISSLQPEDFATYYCQQYSWGPFTFGQGTKVEIKLEDKTHTKVEPKSSDKTHNCPPCPAPELLGGPSVFLFPPKPKDTLMISRTPEVTCVVVDVSHEDPEVKFNWYVDGVEVHNAKTKPREEQYNSTYRVVSVLTVLHQDWLNGKEYKCKVSNKALPAPIEKTISKAKGQPREPQVYTLPPIRELMTSNQVSLSCAVKGFYPSDIAVEWESNGQPENNYKTTPPVLDSDGSFFLVSKLTVDKSRWQQGNVFSCSVMHEALHNHYTQKSLSLSPGKSGSETPGTSESATPESGGGEVQLVESGGGLVQPGGSLRLSCAASGFNIHSSSIHWVRQAPGKGLEWVAATYSSFGSITYADSVKGRFTISADTSKNTAYLQMNSLRAEDTAVYYCARYHHPFGYALDYWGQGTLVTVSSGTTAASGSSGGSSSGADIQMTQSPSSLSASVGDRVTITCRASQSVSSAVAWYQQKPGKAPKLLIYSASSLYSGVPSRFSGSRSGTDFTLTISSLQPEDFATYYCQQGVYLFTFGQGTKVEIK
chain 2: MNLLLILTFVAAAVAEFEVQLVESGGGLVQPGGSLRLSCAASGFNISYSSIHWVRQAPGKGLEWVAYISSYYGYTYYADSVKGRFTISADTSKNTAYLQMNSLRAEDTAVYYCARAHYFPWAGAMDYWGQGTLVTVSSGGGGDIQMTQSPSSLSASVGDRVTITCRASQSVSSAVAWYQQKPGKAPKLLIYSASSLYSGVPSRFSGSRSGTDFTLTISSLQPEDFATYYCQQYYWPITFGQGTKVEIKLEDKTHTKVEPKTSDKTHTCPPCPAPELLGGPSVFLFPPKPKDTLMISRTPEVTCVVVDVSHEDPEVKFNWYVDGVEVHNAKTKPREEQYNSTYRVVSVLTVLHQDWLNGKEYKCKVSNKALPAPIEKTISKAKGQPREPMVFDLPPSREEMTKNQVSLWCMVKGFYPSDIAVEWESNGQPENNYKTTPPVLDSDGSFFLYSKLTVDKSRWQQGNVFSCSVMHEALHNHYTQKSLSLSPGKSGSETPGTSESATPESGGGEVQLVESGGGLVQPGGSLRLSCAASGFNIHSSSIHWVRQAPGKGLEWVAATYSSFGSITYADSVKGRFTISADTSKNTAYLQMNSLRAEDTAVYYCARYHHPFGYALDYWGQGTLVTVSSGTTAASGSSGGSSSGADIQMTQSPSSLSASVGDRVTITCRASQSVSSAVAWYQQKPGKAPKLLIYSASSLYSGVPSRFSGSRSGTDFTLTISSLQPEDFATYYCQQGVYLFTFGQGTKVEIK
In turn, B4 returned a % Wnt Maxima Avg of 42%; an EC50 (nM), TOPFLASH assay of 0.4 nM; a Maximal Signal (% Wnt3a maxima) (% Wnt3a maxima) of 42; a Topflash EC50 (nM) Avg of 0.4 nM.
